Experimental data: patent US20130224224A1 (Boehringer Ingelheim, published 2013)
Numbering of substitutions follows the chain as printed. Where two headings read alike, the source gives them in different places.

Experiments:
[1] = target: T1, human CX3CR1 (human, UniProt P49238 1-355); assay: cell-based or functional assay
T1 sequence: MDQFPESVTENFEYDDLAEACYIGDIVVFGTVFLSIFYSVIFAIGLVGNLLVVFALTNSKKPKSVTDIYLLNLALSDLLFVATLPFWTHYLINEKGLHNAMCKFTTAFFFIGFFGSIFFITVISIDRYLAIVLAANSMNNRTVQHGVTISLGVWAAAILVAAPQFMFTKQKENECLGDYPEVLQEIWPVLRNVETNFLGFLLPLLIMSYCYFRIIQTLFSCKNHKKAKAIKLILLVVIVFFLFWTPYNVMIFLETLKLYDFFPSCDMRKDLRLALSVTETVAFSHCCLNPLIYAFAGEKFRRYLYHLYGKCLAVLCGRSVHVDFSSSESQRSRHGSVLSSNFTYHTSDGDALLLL

[2] = target: T1, human CX3CR1; assay: cell-based or functional assay; remark: listed apart in the source
[3] = target: T1, human CX3CR1; assay: fractalkine competition FACS
[4] = target: T1, human CX3CR1; assay: fractalkine competition FACS; remark: listed apart in the source
[5] = target: T1, human CX3CR1; assay: fractalkine competition FACS; remark: listed apart in the source
[6] = target: T1, human CX3CR1; assay: A647-fractalkine competition FACS, HEK293-huCX3CR1
Text: (§1) Periplasmic extracts were screened in a human CX3CR1/human Fractalkine FACS competition assay to assess the blocking capacity of the expressed VHHs. Human CX3CR1 was presented on CHO cells overexpressing CX3CR1. Both a setup using cells harvested from an actively growing culture and a setup using frozen cells was used. As a detection reagent labeled fractalkine was used (R&D Systems, Minneapolis, Minn., USA) labeled with alexa647 (A647-Fractalkine) at a degree of labeling of 1. To setup the assay, first a titration series of the labeled fractalkine was performed on the CHO-huCX3CR1 cells in order to determine the EC50 value for binding. Initially screening was performed at a higher concentration of fractalkine (3 nM) to increase the assay robustness. To increase the sensitivity of the screening to a maximum, the EC30 concentration (1 nM) was chosen for subsequent screening. In brief 50 μl of periplasmic extract was added to 6 nM labeled fractalkine (50 μ;) and 200 000 CHO-huCX3CR1 cells. After one hour incubation at 4 C, cells were washed three times before read out was performed on a FACS Array (Becton Dickinson). First a gate was set on the intact cells as determined from the scatter profile. Next, dead cells were gated out by their fluorescence profile from the PI stain (Sigma, St Louis, US). The fluorescence profile from the alexa647 label was determined for each sample and used for calculation of blocking capacity. As controls, conditions were taken along where there was no VHH present in the peri extract or a known irrelevant VHH and samples were included where excess cold fractalkine was included. For each sample the percentage block was determined using the control samples to determine the assay window.
(§2) The blocking capacity towards the ligand fractalkine of the VHHs was evaluated in a human CX3CR1 competition FACS as outlined in Example 4. Either CHO-huCX3CR1 cells, BA/F3-huCX3CR1 cells or transiently transfected HEK293T cells were used. The amount of labeled ligand used in the different competition setups was also varied. The IC₅₀ values for VHHs blocking the interaction of human fractalkine to human CX3CR1 are depicted in Table 19.

[7] = target: T1, human CX3CR1; assay: A647-fractalkine competition FACS, HEK293T human CX3CR1
Text: as §1
(§3) For later identified VHHs, a human Fractalkine competition FACS was set up using human or cynomolgus CX3CR1 expressed in HEK293T cells. Both the human and the cynomolgus receptor was transiently transfected in HEK293T cells and transfections were matched by the binding of the labeled ligand, human fractalkine. The competition was evaluated using the EC30 concentration of fractalkine and as such obtained IC50 values are a good estimate of the Ki value, a measure for affinity (Table 22). The experiment was performed as described in Example 4.

[8] = target: T2, cynomolgus CX3CR1 (cynomolgus, UniProt P49238 1-355 (human entry)); assay: A647-fractalkine competition FACS, HEK293T cynomolgus CX3CR1
T2 construct: transiently expressed on HEK293T cells; also called cyCX3CR1; cyno CX3CR1
T2 chain: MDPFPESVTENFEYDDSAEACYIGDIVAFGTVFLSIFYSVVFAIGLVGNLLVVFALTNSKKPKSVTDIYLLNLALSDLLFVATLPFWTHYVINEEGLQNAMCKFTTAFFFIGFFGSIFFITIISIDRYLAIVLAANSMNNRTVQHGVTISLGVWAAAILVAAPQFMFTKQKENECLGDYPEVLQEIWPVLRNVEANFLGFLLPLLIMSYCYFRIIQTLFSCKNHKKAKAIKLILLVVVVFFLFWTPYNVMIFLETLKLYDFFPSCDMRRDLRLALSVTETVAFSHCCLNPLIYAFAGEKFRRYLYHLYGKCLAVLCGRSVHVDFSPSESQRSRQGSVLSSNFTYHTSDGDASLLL
Text: as §1, §3

[9] = target: T2, cynomolgus CX3CR1; assay: A647-fractalkine competition FACS, cynomolgus against human CX3CR1
Text: as §1, §3

[10] = target: T1, human CX3CR1; assay: competition FACS, BA/F3-huCX3CR1; competitor alexa647-labeled 66B02
Text: A competitive binding experiment was setup in order to determine whether the VHHs bind overlapping epitopes on CX3CR1. For this, the VHH 66B02 labeled with alexa647 was used in a competition FACS on the BA/F3 cells expressing huCX3CR1. Representative VHHs from the three functional families were used as competitors for the binding of the labeled 66B02.

[11] = target: T1, human CX3CR1; assay: cell-based or functional assay; remark: listed apart in the source
[12] = target: T1, human CX3CR1; assay: A647-fractalkine competition FACS, HEK293-huCX3CR1; remark: listed apart in the source
[13] = target: T1, human CX3CR1; assay: A647-fractalkine competition FACS, HEK293T human CX3CR1; remark: listed apart in the source
Procedure: as §3, with “4. The ratio of the IC50 values on cynomolgus monkey and human CX3CR1 was used to evaluate potential differences in affinity for CX3CR1 in both species.” for “4.”
(§4) Also for the bivalent constructs the cross reactivity towards cynomolgus CX3CR1 was evaluated and compared with the human reactivity. As described earlier, either a binding setup (Table 27) or a ligand competition setup (Table 28) were applied using transient transfected HEK293T cells. Batches of transient transfected cells were matched by their receptor expression level.

[14] = target: T2, cynomolgus CX3CR1; assay: A647-fractalkine competition FACS, HEK293T cynomolgus CX3CR1
Procedure: as §3, with “4. The ratio of the IC50 values on cynomolgus monkey and human CX3CR1 was used to evaluate potential differences in affinity for CX3CR1 in both species.” for “4.”
as §4

[15] = target: T2, cynomolgus CX3CR1; assay: A647-fractalkine competition FACS, cynomolgus against human CX3CR1
Procedure: as §3, with “4. The ratio of the IC50 values on cynomolgus monkey and human CX3CR1 was used to evaluate potential differences in affinity for CX3CR1 in both species.” for “4.”
as §4

[16] = target: T1, human CX3CR1; assay: A647-fractalkine competition FACS, CHO-huCX3CR1
Text: as §1, §2

[17] = target: T1, human CX3CR1; assay: A647-fractalkine competition FACS, BA/F3-huCX3CR1
Text: as §1, §2

[18] = target: T1, human CX3CR1; assay: FACS binding on human CX3CR1 cells, anti-c-myc detection
Procedure: Initially, a FACS based binding setup was used to evaluate the cynomolgus cross reactivity. For this, the VHHs were incubated with the respective cells for 30 minutes at 4° C. followed by three wash steps and subsequently incubated with the detection reagents. As detection, a mouse anti-cmyc antibody (Serotec, MCA2200) followed by a goat anti-mouse antibody coupled to PE (Jackson 115-116-071) was used, each incubation for 30 minutes at 4° C., followed by three wash steps.

[19] = target: T1, human CX3CR1; assay: periplasmic extract, A647-fractalkine competition FACS, CHO-huCX3CR1
Text: as §1

B1: CX3CR1BIIPMP66B02 (VHH)
VHH: EVQLVESGGGSVQAGESLRLSCAASGSIFSSNAMAWYRQAPGKRRDLVAAINSVGVTKYADSVKGRFTISRDNAKNTVYLQMNSLKPEDTAVYYCTSDPRRGWDTRYWGQGTQVTVSS
modifications: alexa647 label where used as labeled competitor (Table 23)
notes: also called CX3CR1BII66B02; C100CX3CR1BII66B02; not shown: C-terminal c-myc and His6 tags
% block, fractalkine induced chemotaxis [1]: 87% | IC50, fractalkine induced chemotaxis [1]: 20 nM | % block, ligand induced chemotaxis [2]: 91% | IC50, ligand induced chemotaxis [2]: 36 nM | % block [3]: 101% | IC50 [3]: 2.6 nM | % block [4]: 98% | IC50 [4]: 2.5 nM | % block [5]: 98% | IC50 [5]: 2.5 nM | % block [6]: 102% | IC50 [6]: 2.5 nM | % block [7]: 102% | IC50 [7]: 2.5 nM | % block [8]: 97% | IC50 [8]: 19 nM | ratio (cynomolgus/human IC50) [9]: 7.5 | % block [10]: 100% | IC50 [10]: 1.5 nM

B2: CX3CR1BII017 (VHH)
chain: EVQLVESGGGSVQAGESLRLSCAASGSIFSSNAMAWYRQAPPGKQRDLVALINSVGITKYADSVKGRFTISSDNAKNTVYLEMNSLKPEDTAVYYCTSDGRRGWDTRYWGQGTQVTVSSGGGGSGGGGSGGGGSGGGGSGGGGSGGGGSGGGGSEVQLVESGGGSVQAGESLRLSCAASGSIFSSNAMAWYRQAPPGKQRDLVALINSVGITKYADSVKGRFTISSDNAKNTVYLEMNSLKPEDTAVYYCTSDGRRGWDTRYWGQGTQVTVSS
notes: expressed in E. coli as described for the monovalent VHHs
% block, fractalkine induced chemotaxis [11]: 89% | IC50, fractalkine induced chemotaxis [11]: 3 nM | % block [12]: 99% | IC50 [12]: 0.31 nM | % block [13]: 99% | IC50 [13]: 0.31 nM | % block [14]: 95% | IC50 [14]: 1.6 nM | ratio (cynomolgus/human IC50) [15]: 5.34

B3: CX3CR1BII016 (VHH)
chain: EVQLVESGGGSVQAGESLRLSCAASGSIFSSNAMAWYRQAPGKQRDLVAVINSVGITKYADSVKGRFTISGDNAKNTVYLQMNSLKPEDTAVYYCTSDARRGWDTRYWGQGTQVTVSSGGGGSGGGGSGGGGSGGGGSGGGGSGGGGSGGGGSEVQLVESGGGSVQAGESLRLSCAASGSIFSSNAMAWYRQAPGKQRDLVAVINSVGITKYADSVKGRFTISGDNAKNTVYLQMNSLKPEDTAVYYCTSDARRGWDTRYWGQGTQVTVSS
notes: as for B2
% block, fractalkine induced chemotaxis [11]: 88% | IC50, fractalkine induced chemotaxis [11]: 2 nM | % block [12]: 102% | IC50 [12]: 0.19 nM | % block [13]: 102% | IC50 [13]: 0.19 nM | % block [14]: 98% | IC50 [14]: 0.69 nM | ratio (cynomolgus/human IC50) [15]: 3.67

B4: CX3CR1BII019 (VHH)
chain: B3 chain with V2M, V50L, G71R, A99G, V155M, V203L, G224R, A252G
notes: as for B2
% block, fractalkine induced chemotaxis [11]: 85% | IC50, fractalkine induced chemotaxis [11]: 2 nM | % block [12]: 100% | IC50 [12]: 0.29 nM | % block [13]: 100% | IC50 [13]: 0.29 nM | % block [14]: 96% | IC50 [14]: 0.82 nM | ratio (cynomolgus/human IC50) [15]: 2.86

B5: CX3CR1BII020 (VHH)
chain: B3 chain with V50G, G71R, V78A, A99P, Q113L, V203G, G224R, V231A, A252P, Q266L
notes: as for B2
% block, fractalkine induced chemotaxis [11]: 85% | IC50, fractalkine induced chemotaxis [11]: 2 nM | % block [12]: 102% | IC50 [12]: 0.22 nM | % block [13]: 102% | IC50 [13]: 0.22 nM | % block [14]: 97% | IC50 [14]: 0.32 nM | ratio (cynomolgus/human IC50) [15]: 1.47

B6: CX3CR1BII018 (VHH)
chain: B3 chain with Q44R, V50A, I56V, G71R, A99P, Q197R, V203A, I209V, G224R, A252P
modifications: A647 label where used as labeled competitor (Example 14)
notes: expressed in E. coli as described for the monovalent VHHs; also called A647-018; A647 labeled CX3CR1BII018
% block, fractalkine induced chemotaxis [11]: 98% | IC50, fractalkine induced chemotaxis [11]: 0.6 nM | % block [12]: 102% | IC50 [12]: 0.3 nM | % block [13]: 102% | IC50 [13]: 0.03 nM | % block [14]: 97% | IC50 [14]: 0.1 nM | ratio (cynomolgus/human IC50) [15]: 3.33

B7: CX3CR1BIIPMP11H11 (VHH)
VHH: EVQLVESGGGLVQAGGSLRLSCVASGRTFSSYAMGWFRQAPGKERAFVAGISGSASRKYYADSVKGRFTVSRDNARNTVYLQMNSLKPEDTAVYYCAASNSYPKVQFDYYGQGTQVTVSS
notes: family 9; also called CX3CR1BII11H11; not shown: C-terminal c-myc and His6 tags
% block, fractalkine induced chemotaxis [1]: 89% | IC50, fractalkine induced chemotaxis [1]: 200 nM | % block [16]: 100% | IC50 [16]: 17 nM | % block [17]: 100% | IC50 [17]: 8.1 nM | EC50 [18]: 0.8 nM | % block [10]: 100% | IC50 [10]: 4.9 nM | % block [19]: 99%
